How the values were obtained:
[1] = biological target: In trans activated C25A-cathepsin S (human); assay: surface acoustic wave biosensor (sam5BLUE); C25A-cathepsin S coupled by EDC/NHS to a short-chain COOH sensor chip; untreated Bet v 1 injected at increasing concentrations (5 or 10 to 100 μM); 20 mM imidazole pH 6.7, 50 mM NaCl; apparent KD from kobs by linear regression
[2] = biological target: In trans activated C25A-cathepsin S (human); assay: surface acoustic wave biosensor (sam5BLUE); C25A-cathepsin S immobilized; heat-destabilized Bet v 1 (10 min at 60 °C, spin-filtered) injected, 1a at 10 to 100 μM, 1d at 2.5 to 40 μM; pH 6.7

B1: Bet v 1a (Bet v 1.0101), major birch pollen allergen (natural protein)
chain: GVFNYETETTSVIPAARLFKAFILDGDNLFPKVAPQAISSVENIEGNGGPGTIKKISFPEGFPFKYVKDRVDEVDHTNFKYNYSVIEGGPIGDTLEKISNEIKIVATPDGGSILKISNKYHTKGDHEVKAEQVKASKEMGETLLRAVESYLLAHSDAYN
[1]
  Kd: 21.5 µM

B2: Bet v 1d (Bet v 1.0401), hypoallergenic isoform of the major birch pollen allergen (natural protein)
chain: MGVFNYEIETTSVIPAARLFKAFILDGDNLVPKVAPQAISSVENIEGNGGPGTIKKINFPEGFPFKYVKDRVDEVDHTNFKYNYSVIEGGPVGDTLEKISNEIKIVATPDGGCVLKISNKYHTKGNHEVKAEQVKASKEMGETLLRAVESYLLAHSDAYN
[2]
  fold reduction in affinity against untreated Bet v 1d: 5 fold
[1]
  Kd: 5.4 µM
